This assay has as its target T1, Amylin 3(a) receptor (human calcitonin receptor (CTa) with RAMP-3) (human, UniProt P30988 25-474; O60896 24-148, limits assumed).
T1 sequence (looked up) 1: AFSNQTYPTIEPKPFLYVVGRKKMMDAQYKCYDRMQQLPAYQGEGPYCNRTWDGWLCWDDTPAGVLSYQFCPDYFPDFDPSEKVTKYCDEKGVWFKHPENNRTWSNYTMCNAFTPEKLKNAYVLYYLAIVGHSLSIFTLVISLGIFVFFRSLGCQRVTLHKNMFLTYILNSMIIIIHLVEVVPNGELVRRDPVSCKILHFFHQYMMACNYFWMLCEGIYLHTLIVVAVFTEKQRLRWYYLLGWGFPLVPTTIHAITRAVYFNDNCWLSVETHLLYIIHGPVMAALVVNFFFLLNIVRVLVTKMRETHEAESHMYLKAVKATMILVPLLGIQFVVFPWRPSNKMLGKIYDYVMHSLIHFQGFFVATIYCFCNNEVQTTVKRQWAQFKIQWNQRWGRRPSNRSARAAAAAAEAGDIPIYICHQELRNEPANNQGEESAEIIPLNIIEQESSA
T1 sequence (looked up) 2: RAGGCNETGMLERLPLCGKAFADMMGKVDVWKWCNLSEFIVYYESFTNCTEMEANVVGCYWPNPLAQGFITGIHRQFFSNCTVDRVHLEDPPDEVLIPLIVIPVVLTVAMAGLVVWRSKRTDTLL
The assay can be described thus: cell-based or functional assay.

*1 amine or outer side, *2 acyl side, *3 side chain or, on linkers, in order; H or OH if unused. Bridges are numbered along the chain shown (N, C = ends). Where no end group is shown, it is not given here. The star is where a group is joined. X2 = (S)‑4‑Carboxy‑4‑(19-carboxynonadecanoylamino)butyryl, O=C(O)CCCCCCCCCCCCCCCCCCC(=O)N[C@@H](CCC(=O)*)C(=O)O; X1 = (S)‑4‑Carboxy‑4‑(17-carboxyheptadecanoylamino)butyryl, O=C(O)CCCCCCCCCCCCCCCCC(=O)N[C@@H](CCC(=O)*)C(=O)O; C20 diacid = O=C(O)CCCCCCCCCCCCCCCCCCC(=O)*; C18 diacid = O=C(O)CCCCCCCCCCCCCCCCC(=O)*; γGlu = O=C(O)[C@H](CCC(=O)[*:2])N[*:1]; AEEA = NCCOCCOCC(=O)O

For {C18 diacid-γGlu-AEEA-AEEA}-CNTATCATQRLANFLHHSSNNFGPILPPTNVGSNTY-NH2 (disulfide 1-6), the “Potency Luciferase” value was determined as 0.04 nM. For the molecule {5‑carboxypentanoyl-γGlu}-HHHCNTATCATQRLANFLHHSSNNFGPILPPTNVGSNTY-NH2 (disulfide 4-9) [N-alpha-[(S)-4-Carboxy-4-(5-carboxypentanoylamino)butyryl]-His-His-[His1,His17]-pramlintide], the “Potency Luciferase” value stood at 0.04 nM.

{C20 diacid-γGlu}-KCNTATCATQRLANFLHHSSNNFGPILPPTNVGSNTY-NH2 (disulfide 2-7) [N-alpha-[(S)-4-Carboxy-4-(19-carboxynonadecanoylamino)butyryl]-[His17]-pramlintide]: the “Potency Luciferase” value came to 0.2 nM.

B1: N-alpha-[(S)-4-Carboxy-4-(19-carboxynonadecanoylamino)butyryl]-Arg-His[Arg1,His17]-pramlintide (peptide)
peptide: X2-RHRCNTATCATQRLANFLHHSSNNFGPILPPTNVGSNTY-NH2
modifications: disulfide 4-9
SMILES: CC[C@H](C)[C@H](NC(=O)[C@@H]1CCCN1C(=O)CNC(=O)[C@H](Cc1ccccc1)NC(=O)[C@H](CC(N)=O)NC(=O)[C@H](CC(N)=O)NC(=O)[C@H](CO)NC(=O)[C@H](CO)NC(=O)[C@H](Cc1c[nH]cn1)NC(=O)[C@H](Cc1c[nH]cn1)NC(=O)[C@H](CC(C)C)NC(=O)[C@H](Cc1ccccc1)NC(=O)[C@H](CC(N)=O)NC(=O)[C@H](C)NC(=O)[C@H](CC(C)C)NC(=O)[C@H](CCCNC(=N)N)NC(=O)[C@H](CCC(N)=O)NC(=O)[C@@H](NC(=O)[C@H](C)NC(=O)[C@@H]1CSSC[C@H](NC(=O)[C@H](CCCNC(=N)N)NC(=O)[C@H](Cc2c[nH]cn2)NC(=O)[C@H](CCCNC(=N)N)NC(=O)CC[C@H](NC(=O)CCCCCCCCCCCCCCCCCCC(=O)O)C(=O)O)C(=O)N[C@@H](CC(N)=O)C(=O)N[C@@H]([C@@H](C)O)C(=O)N[C@@H](C)C(=O)N[C@@H]([C@@H](C)O)C(=O)N1)[C@@H](C)O)C(=O)N[C@@H](CC(C)C)C(=O)N1CCC[C@H]1C(=O)N1CCC[C@H]1C(=O)N[C@H](C(=O)N[C@@H](CC(N)=O)C(=O)N[C@H](C(=O)NCC(=O)N[C@@H](CO)C(=O)N[C@@H](CC(N)=O)C(=O)N[C@H](C(=O)N[C@@H](Cc1ccc(O)cc1)C(N)=O)[C@@H](C)O)C(C)C)[C@@H](C)O
Turning to B1, the “Potency Luciferase” value was determined as 0.1 nM.

B2: N-alpha-[(S)-4-Carboxy-4-(19-carboxynonadecanoylamino)butyryl]-Glu-Arg-His-[Arg1,His17]-pramlintide (peptide)
peptide: X2-ERHRCNTATCATQRLANFLHHSSNNFGPILPPTNVGSNTY-NH2
modifications: disulfide 5-10
SMILES: CC[C@H](C)[C@H](NC(=O)[C@@H]1CCCN1C(=O)CNC(=O)[C@H](Cc1ccccc1)NC(=O)[C@H](CC(N)=O)NC(=O)[C@H](CC(N)=O)NC(=O)[C@H](CO)NC(=O)[C@H](CO)NC(=O)[C@H](Cc1c[nH]cn1)NC(=O)[C@H](Cc1c[nH]cn1)NC(=O)[C@H](CC(C)C)NC(=O)[C@H](Cc1ccccc1)NC(=O)[C@H](CC(N)=O)NC(=O)[C@H](C)NC(=O)[C@H](CC(C)C)NC(=O)[C@H](CCCNC(=N)N)NC(=O)[C@H](CCC(N)=O)NC(=O)[C@@H](NC(=O)[C@H](C)NC(=O)[C@@H]1CSSC[C@H](NC(=O)[C@H](CCCNC(=N)N)NC(=O)[C@H](Cc2c[nH]cn2)NC(=O)[C@H](CCCNC(=N)N)NC(=O)[C@H](CCC(=O)O)NC(=O)CC[C@H](NC(=O)CCCCCCCCCCCCCCCCCCC(=O)O)C(=O)O)C(=O)N[C@@H](CC(N)=O)C(=O)N[C@@H]([C@@H](C)O)C(=O)N[C@@H](C)C(=O)N[C@@H]([C@@H](C)O)C(=O)N1)[C@@H](C)O)C(=O)N[C@@H](CC(C)C)C(=O)N1CCC[C@H]1C(=O)N1CCC[C@H]1C(=O)N[C@H](C(=O)N[C@@H](CC(N)=O)C(=O)N[C@H](C(=O)NCC(=O)N[C@@H](CO)C(=O)N[C@@H](CC(N)=O)C(=O)N[C@H](C(=O)N[C@@H](Cc1ccc(O)cc1)C(N)=O)[C@@H](C)O)C(C)C)[C@@H](C)O
Regarding B2, the “Potency Luciferase” value stood at 0.1 nM.

B3: N-alpha-[2-(2-{2-[4-(S)-Carboxy-4-(19-carboxynonadecanoylamino)butyrylamino]ethoxy}ethoxy)acetyl]-His-His-[Arg1,Arg17,Gln21]-pramlintide (peptide)
peptide: {C20 diacid-γGlu-AEEA}-HHRCNTATCATQRLANFLRHSSQNFGPILPPTNVGSNTY-NH2
modifications: disulfide 4-9
SMILES: CC[C@H](C)[C@H](NC(=O)[C@@H]1CCCN1C(=O)CNC(=O)[C@H](Cc1ccccc1)NC(=O)[C@H](CC(N)=O)NC(=O)[C@H](CCC(N)=O)NC(=O)[C@H](CO)NC(=O)[C@H](CO)NC(=O)[C@H](Cc1c[nH]cn1)NC(=O)[C@H](CCCNC(=N)N)NC(=O)[C@H](CC(C)C)NC(=O)[C@H](Cc1ccccc1)NC(=O)[C@H](CC(N)=O)NC(=O)[C@H](C)NC(=O)[C@H](CC(C)C)NC(=O)[C@H](CCCNC(=N)N)NC(=O)[C@H](CCC(N)=O)NC(=O)[C@@H](NC(=O)[C@H](C)NC(=O)[C@@H]1CSSC[C@H](NC(=O)[C@H](CCCNC(=N)N)NC(=O)[C@H](Cc2c[nH]cn2)NC(=O)[C@H](Cc2c[nH]cn2)NC(=O)COCCOCCNC(=O)CC[C@H](NC(=O)CCCCCCCCCCCCCCCCCCC(=O)O)C(=O)O)C(=O)N[C@@H](CC(N)=O)C(=O)N[C@@H]([C@@H](C)O)C(=O)N[C@@H](C)C(=O)N[C@@H]([C@@H](C)O)C(=O)N1)[C@@H](C)O)C(=O)N[C@@H](CC(C)C)C(=O)N1CCC[C@H]1C(=O)N1CCC[C@H]1C(=O)N[C@H](C(=O)N[C@@H](CC(N)=O)C(=O)N[C@H](C(=O)NCC(=O)N[C@@H](CO)C(=O)N[C@@H](CC(N)=O)C(=O)N[C@H](C(=O)N[C@@H](Cc1ccc(O)cc1)C(N)=O)[C@@H](C)O)C(C)C)[C@@H](C)O
B3: the “Potency Luciferase” value was 0.1 nM.

B4: N-alpha-[(S)-4-Carboxy-4-(17-carboxyheptadecanoylamino)butyryl]-His-His-[His1,His17]-pramlintide (peptide)
peptide: X1-HHHCNTATCATQRLANFLHHSSNNFGPILPPTNVGSNTY-NH2
modifications: disulfide 4-9
SMILES: CC[C@H](C)[C@H](NC(=O)[C@@H]1CCCN1C(=O)CNC(=O)[C@H](Cc1ccccc1)NC(=O)[C@H](CC(N)=O)NC(=O)[C@H](CC(N)=O)NC(=O)[C@H](CO)NC(=O)[C@H](CO)NC(=O)[C@H](Cc1c[nH]cn1)NC(=O)[C@H](Cc1c[nH]cn1)NC(=O)[C@H](CC(C)C)NC(=O)[C@H](Cc1ccccc1)NC(=O)[C@H](CC(N)=O)NC(=O)[C@H](C)NC(=O)[C@H](CC(C)C)NC(=O)[C@H](CCCNC(=N)N)NC(=O)[C@H](CCC(N)=O)NC(=O)[C@@H](NC(=O)[C@H](C)NC(=O)[C@@H]1CSSC[C@H](NC(=O)[C@H](Cc2c[nH]cn2)NC(=O)[C@H](Cc2c[nH]cn2)NC(=O)[C@H](Cc2c[nH]cn2)NC(=O)CC[C@H](NC(=O)CCCCCCCCCCCCCCCCC(=O)O)C(=O)O)C(=O)N[C@@H](CC(N)=O)C(=O)N[C@@H]([C@@H](C)O)C(=O)N[C@@H](C)C(=O)N[C@@H]([C@@H](C)O)C(=O)N1)[C@@H](C)O)C(=O)N[C@@H](CC(C)C)C(=O)N1CCC[C@H]1C(=O)N1CCC[C@H]1C(=O)N[C@H](C(=O)N[C@@H](CC(N)=O)C(=O)N[C@H](C(=O)NCC(=O)N[C@@H](CO)C(=O)N[C@@H](CC(N)=O)C(=O)N[C@H](C(=O)N[C@@H](Cc1ccc(O)cc1)C(N)=O)[C@@H](C)O)C(C)C)[C@@H](C)O
For B4, the “Potency Luciferase” value came out at 0.05 nM.

B5: N-alpha-[2-(2-{2-[2-(2-{2-[(S)-4-Carboxy-4-(19-carboxyheptadecanoylamino)butyrylamino]ethoxy}ethoxy)acetylamino]ethoxy}ethoxy)acetyl]-[His17]-pramlintide (2-37) (peptide)
peptide: CNTATCATQRLANFLHHSSNNFGPILPPTNVGSNTY-NH2
modifications: disulfide 1-6; not fully specified (N-terminus); printed as N-alpha-[2-(2-{2-[2-(2-{2-[(S)-4-Carboxy-4-(19-carboxyheptadecanoylamino)butyrylamino]ethoxy}ethoxy)acetylamino]ethoxy}ethoxy)acetyl]-[His17]-pramlintide (2-37)
Turning to B5, the “Potency Luciferase” value is 0.07 nM.

B6: N-alpha-[(S)-4-Carboxy-4-(19-carboxynonadecanoylamino)butyryl]-His-His-[Arg1,His17]-pramlintide (peptide)
peptide: HHRCNTATCATQRLANFLHHSSNNFGPILPPTNVGSNTY-NH2
modifications: disulfide 4-9; not fully specified (N-terminus); printed as N-alpha-[(S)-4-Carboxy-4-(19-carboxynonadecanoylamino)butyryl]-His-His-[Arg1,His17]-pramlintide
For the molecule B6, the “Potency Luciferase” value turned out to be 0.09 nM.

B7: N-alpha-[(S)-4-Carboxy-4-(19-carboxynonadecanoylamino)butyryl]-His-Arg-[His1,His17]-pramlintide (peptide)
peptide: HRHCNTATCATQRLANFLHHSSNNFGPILPPTNVGSNTY-NH2
modifications: disulfide 4-9; not fully specified (N-terminus); printed as N-alpha-[(S)-4-Carboxy-4-(19-carboxynonadecanoylamino)butyryl]-His-Arg-[His1,His17]-pramlintide
Take B7: the “Potency Luciferase” value came to 0.05 nM.

(Values after US20110105394A1 (Novo Nordisk, published 2011).)
